From patent US20050037969A1 (ARBOR VITA, published 2005)
Ends that are not written are not given here. * marks the point of attachment. Biotin = O=C1N[C@H]2[C@H](CS[C@H]2CCCCC(=O)*)N1

What was measured:
Assay in all cases: A/G assays
[1] = biological target: T1, K858 PDZ-GST fusion protein (Homo sapiens (Human), UniProt Q8WWI1 1038-1131)
T1 construct: Order of GST and PDZ part and limits not seen in the excerpts
T1 sequence: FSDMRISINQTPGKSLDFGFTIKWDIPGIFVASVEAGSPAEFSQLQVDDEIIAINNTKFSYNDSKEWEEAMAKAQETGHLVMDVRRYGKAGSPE

[2] = biological target: T2, GST-PDZK1 fusion protein (PDZ domains 2-4) (Homo sapiens, UniProt Q5T2W1 134-457)
T2 construct: not shown: glutathione S-transferase encoded by vector pGEX-3X (Pharmacia)
T2 sequence: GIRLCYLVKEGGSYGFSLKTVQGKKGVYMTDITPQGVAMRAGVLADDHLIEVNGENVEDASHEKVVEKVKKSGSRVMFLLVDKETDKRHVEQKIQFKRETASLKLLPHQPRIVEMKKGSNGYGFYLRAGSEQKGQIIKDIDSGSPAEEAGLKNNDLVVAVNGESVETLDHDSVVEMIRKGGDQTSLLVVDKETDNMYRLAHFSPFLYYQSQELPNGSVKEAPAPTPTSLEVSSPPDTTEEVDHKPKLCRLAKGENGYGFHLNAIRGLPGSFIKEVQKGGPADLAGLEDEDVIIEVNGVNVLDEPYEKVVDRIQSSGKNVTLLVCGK

[3] = biological target: T3, ConEn PDZ-GST fusion protein (Homo sapiens (Human), UniProt Q969H4 193-287)
T3 construct: The label ConEn is not explained in the excerpts
T3 sequence: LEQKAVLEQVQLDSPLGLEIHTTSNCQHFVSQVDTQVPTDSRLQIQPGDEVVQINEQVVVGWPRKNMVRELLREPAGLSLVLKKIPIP

[4] = biological target: T4, MINT3 PDZ-GST fusion protein
T4 construct: Order of GST and PDZ part and limits not seen in the excerpts
T4 chain: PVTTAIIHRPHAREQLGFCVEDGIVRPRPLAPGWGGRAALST

[5] = biological target: T5, GST-TAX-IP40 PDZ domain fusion protein (human, UniProt Q6B4M5 150-252 (rat entry))
T5 construct: also called TAX40; not shown: glutathione S-transferase encoded by vector pGEX-3X (Pharmacia)
T5 sequence: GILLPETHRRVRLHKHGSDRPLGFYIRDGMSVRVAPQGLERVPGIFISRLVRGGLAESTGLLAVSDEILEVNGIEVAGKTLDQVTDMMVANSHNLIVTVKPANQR

[6] = biological target: T6, NSP PDZ-GST fusion protein (Homo sapiens (Human), UniProt Q92743 370-466)
T6 construct: The label NSP is not explained in the excerpts

[7] = biological target: T7, K559 PDZ-GST fusion protein (Homo sapiens (Human), UniProt Q9Y6V0 4489-4593)
T7 construct: Order of GST and PDZ part and limits not seen in the excerpts
T7 sequence: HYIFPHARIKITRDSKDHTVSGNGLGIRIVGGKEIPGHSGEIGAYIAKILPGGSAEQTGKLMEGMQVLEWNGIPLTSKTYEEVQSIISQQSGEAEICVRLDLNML

[8] = biological target: T8, NOS1 PDZ-GST fusion protein (Homo sapiens (Human), UniProt P29475 11-100)
T8 construct: Order of GST and PDZ part and limits not seen in the excerpts

[9] = biological target: T9, PICK1 PDZ-GST fusion protein (Bos taurus (Bovine), UniProt Q2T9M1 17-105)
T9 construct: Order of GST and PDZ part and limits not seen in the excerpts

[10] = biological target: T10, GST-LIM protein PDZ domain fusion protein (Human, UniProt Q96HC4 2-85)
T10 construct: also called Human LIM protein; not shown: glutathione S-transferase encoded by vector pGEX-3X (Pharmacia)
T10 sequence: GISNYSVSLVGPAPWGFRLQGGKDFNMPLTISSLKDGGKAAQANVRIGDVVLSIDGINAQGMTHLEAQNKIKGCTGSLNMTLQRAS

[11] = biological target: T11, GST-prIL16 fusion protein (PDZ domains 1-2) (Homo sapiens (Human), UniProt Q14005 1111-1324)
T11 construct: also called putative interleukin 16 precursor; not shown: glutathione S-transferase encoded by vector pGEX-3X (Pharmacia)
T11 sequence: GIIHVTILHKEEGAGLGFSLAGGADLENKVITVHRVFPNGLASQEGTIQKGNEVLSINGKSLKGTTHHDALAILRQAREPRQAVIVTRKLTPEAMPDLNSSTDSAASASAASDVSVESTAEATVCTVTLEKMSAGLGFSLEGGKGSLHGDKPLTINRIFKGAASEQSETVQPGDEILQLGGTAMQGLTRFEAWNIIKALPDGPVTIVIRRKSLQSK

[12] = biological target: T12, GST-CASK PDZ domain fusion protein (Homo sapiens, UniProt O14936 486-575)
T12 construct: also called Homo sapiens CASK protein
T12 sequence: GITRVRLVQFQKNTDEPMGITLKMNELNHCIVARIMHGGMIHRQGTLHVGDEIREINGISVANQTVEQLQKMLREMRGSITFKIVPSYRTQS

[13] = biological target: T13, GST-mouse syntenin fusion protein (Mus musculus, UniProt O08992 108-286)
T13 construct: also called Mus musculus Syntenin; not shown: glutathione S-transferase encoded by vector pGEX-3X (Pharmacia)
T13 chain: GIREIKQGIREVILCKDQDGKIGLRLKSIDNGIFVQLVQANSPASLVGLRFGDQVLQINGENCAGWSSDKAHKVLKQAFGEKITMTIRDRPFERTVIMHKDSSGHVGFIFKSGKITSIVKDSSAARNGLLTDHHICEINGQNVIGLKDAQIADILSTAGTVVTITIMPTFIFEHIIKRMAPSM

[14] = biological target: T14, GST-cytohesin binding protein PDZ domain fusion protein (Homo sapiens (Human), UniProt O60759 74-165)
T14 construct: also called CBP; not shown: glutathione S-transferase encoded by vector pGEX-3X (Pharmacia)
T14 sequence: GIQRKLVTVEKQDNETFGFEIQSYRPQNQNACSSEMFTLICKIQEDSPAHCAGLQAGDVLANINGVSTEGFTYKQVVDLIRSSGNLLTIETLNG

Measured: binding result

T8 sequence (P29475 11-100 limits assumed): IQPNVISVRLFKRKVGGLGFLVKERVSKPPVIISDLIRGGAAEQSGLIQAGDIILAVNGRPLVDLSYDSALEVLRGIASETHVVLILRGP
T6 sequence (Q92743 other isoform, or with tags, fused parts or gaps limits assumed): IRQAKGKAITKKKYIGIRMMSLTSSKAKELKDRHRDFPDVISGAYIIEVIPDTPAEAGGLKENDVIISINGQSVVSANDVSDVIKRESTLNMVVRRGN
T9 sequence (Q2T9M1 other isoform, or with tags, fused parts or gaps limits assumed): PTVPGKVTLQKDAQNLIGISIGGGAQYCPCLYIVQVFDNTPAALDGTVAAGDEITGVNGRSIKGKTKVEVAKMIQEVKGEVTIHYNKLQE

Biotin-CAISGTSSDRGYGSPRYAEV (also called AA3L-V) [Clasp-4 C-terminal peptide AA3L, biotinylated]
no binding: all assays above

B1: Mannose receptor C-terminal peptide AA31L (peptide)
peptide: Biotin-GTSDMKDLVGNIEQNEHSVI
notes: Only the last four residues are seen in the excerpts
no binding: all assays above

Biotin-ENLAPVTTFGKTNGYIA (also called CD148 (DEP-1)) [CD148 C-terminal peptide AA19L, biotinylated]
no binding: all assays above

Biotin-ISKATPALPTVSISSSAEV (also called AA1L-R) [Clasp-1 C-terminal peptide AA1L, biotinylated]
no binding: all assays above
